Reference: patent US20120115830A1 (QUEEN S UNIVERSITY OF BELFAST, published 2012)

T1: XAP3 cloned in-frame into pACT plasmid (UniProt Q9BYM8 1-510)
T1 sequence (looked up): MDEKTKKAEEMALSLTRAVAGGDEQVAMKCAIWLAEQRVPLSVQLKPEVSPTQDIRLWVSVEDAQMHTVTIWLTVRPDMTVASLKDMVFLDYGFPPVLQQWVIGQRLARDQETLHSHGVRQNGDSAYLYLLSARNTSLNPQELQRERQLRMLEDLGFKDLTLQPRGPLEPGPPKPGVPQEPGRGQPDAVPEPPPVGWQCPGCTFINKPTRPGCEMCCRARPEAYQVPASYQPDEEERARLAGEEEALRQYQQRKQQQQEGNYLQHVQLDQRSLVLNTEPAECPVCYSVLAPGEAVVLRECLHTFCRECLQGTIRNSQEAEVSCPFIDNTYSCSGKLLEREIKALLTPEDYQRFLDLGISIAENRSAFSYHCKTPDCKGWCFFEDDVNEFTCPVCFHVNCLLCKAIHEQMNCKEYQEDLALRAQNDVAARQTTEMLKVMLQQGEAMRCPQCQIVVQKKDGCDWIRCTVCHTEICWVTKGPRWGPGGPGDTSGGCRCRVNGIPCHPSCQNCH

T2: USP19 cloned in-frame into pACT plasmid (UniProt O94966 1-1318)
T2 sequence (looked up): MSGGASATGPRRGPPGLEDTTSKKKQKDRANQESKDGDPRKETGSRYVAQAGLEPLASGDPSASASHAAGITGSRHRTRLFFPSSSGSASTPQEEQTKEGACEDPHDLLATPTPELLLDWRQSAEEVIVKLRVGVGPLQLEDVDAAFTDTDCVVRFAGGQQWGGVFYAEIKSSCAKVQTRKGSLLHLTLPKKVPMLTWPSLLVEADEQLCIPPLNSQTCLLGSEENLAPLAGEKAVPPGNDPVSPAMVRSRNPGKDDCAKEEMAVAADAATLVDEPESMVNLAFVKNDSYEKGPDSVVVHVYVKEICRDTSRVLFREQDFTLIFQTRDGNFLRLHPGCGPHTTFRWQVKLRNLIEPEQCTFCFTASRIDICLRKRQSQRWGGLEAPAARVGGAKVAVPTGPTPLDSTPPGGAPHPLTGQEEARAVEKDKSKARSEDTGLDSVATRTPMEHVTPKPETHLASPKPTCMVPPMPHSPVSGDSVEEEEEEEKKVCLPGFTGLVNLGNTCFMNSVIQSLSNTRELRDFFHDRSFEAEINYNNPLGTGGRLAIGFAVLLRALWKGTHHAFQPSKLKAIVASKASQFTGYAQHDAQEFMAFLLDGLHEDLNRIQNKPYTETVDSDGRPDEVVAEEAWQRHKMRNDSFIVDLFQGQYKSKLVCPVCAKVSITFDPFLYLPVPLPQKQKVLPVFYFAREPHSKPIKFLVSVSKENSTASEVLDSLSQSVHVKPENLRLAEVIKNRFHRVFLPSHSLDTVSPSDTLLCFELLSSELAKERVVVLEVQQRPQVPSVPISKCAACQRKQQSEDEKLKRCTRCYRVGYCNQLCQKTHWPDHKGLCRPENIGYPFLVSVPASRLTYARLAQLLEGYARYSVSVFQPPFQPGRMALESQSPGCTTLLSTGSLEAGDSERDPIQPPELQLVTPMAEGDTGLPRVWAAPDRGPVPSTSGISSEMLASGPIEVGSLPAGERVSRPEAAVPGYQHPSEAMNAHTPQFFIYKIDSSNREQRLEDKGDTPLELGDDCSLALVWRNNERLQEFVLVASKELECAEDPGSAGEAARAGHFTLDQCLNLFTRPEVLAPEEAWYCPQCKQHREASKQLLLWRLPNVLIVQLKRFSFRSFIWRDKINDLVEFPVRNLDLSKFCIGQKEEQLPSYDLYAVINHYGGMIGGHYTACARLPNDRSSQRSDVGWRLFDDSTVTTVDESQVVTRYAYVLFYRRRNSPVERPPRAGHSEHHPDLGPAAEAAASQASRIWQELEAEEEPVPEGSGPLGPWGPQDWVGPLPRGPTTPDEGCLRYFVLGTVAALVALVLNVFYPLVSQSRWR


How the values were obtained:
[1] = biological target: T1, XAP3 cloned in-frame into pACT plasmid; experiment: cell-based or functional assay
[2] = biological target: T2, USP19 cloned in-frame into pACT plasmid; experiment: cell-based or functional assay
[3] = biological target: T1, XAP3 cloned in-frame into pACT plasmid; experiment: mammalian two-hybrid (firefly luciferase) in L132 cells
Protocol: In order to confirm the interactions detected using the yeast two-hybrid system and determine that the interaction can take place in a biologically relevant model, the Checkmate Mammalian Two-Hybrid System (Promega, Cat no. E2440) was used. Full length FKBPL and a variety of FKBPL mutants were cloned ‘in-frame’ into pBIND plasmid according to manufacturer's instructions. XAP3 and USP19 were cloned ‘in-frame’ into pACT plasmid according to manufacturer's instructions. 2×10⁴ L132 cells were plated in triplicate into a 96 well plate for each transfection condition and incubated overnight at 37° C. with MEM containing 10% FCS. FKBPL, XAP3 and USP19 plasmids were transfected into cells using Lipofectamine Plus (Invitrogen, Cat no.) and incubated at 37° C. for 24 h. The plate was allowed to equilibrate to room temperature then 75 μl room temperature Dual-Glo Luciferase Reagent (Promega, Cat no. E2920) was added to each well, mixed thoroughly and wrapped in tinfoil. After 15 minutes incubation at room temperature, the Firefly luminescence was measured using a GENios platereader (Tecan). […] After 15 minutes incubation at room temperature, the Renilla luminescence was measured.
Following correction, increased firefly luminescence over self-activations controls indicated a positive interaction between the proteins.

Binder | induction of firefly luminescence [1] | induction of firefly luminescence [2] | binding result [3]
Full length FKBPL cloned in-frame into pBIND plasmid (other, not shown: large carriers) METPPVNTIGEKDTSQPQQEWEKNLRENLDSVIQIRQQPRDPPTETLELEVSPDPASQILEHTQGAEKLVAELEGDSHKSHGSTSQMPEALQASDLWYCPDGSFVKKIVIRGHGLDKPKLGSCCRVLALGFPFGSGPPEGWTELTMGVGPWREETWGELIEKCLESMCQGEEAELQLPGHSGPPVRLTLASFTQGRDSWELETSEKEALAREERARGTELFRAGNPEGAARCYGRALRLLLTLPPPGPPERTVLHANLAACQLLLGQPQLAAQSCDRVLEREPGHLKALYRRGVAQAALGNLEKATADLKKVLAIDPKNRAAQEELGKVVIQGKNQDAGLAQGLRKMFG | 20 fold | 10 fold | –
FKBPLΔ200 (other, not shown: large carriers) METPPVNTIGEKDTSQPQQEWEKNLRENLDSVIQIRQQPRDPPTETLELEVSPDPASQILEHTQGAEKLVAELEGDSHKSHGSTSQMPEALQASDLWYCPDGSFVKKIVIRGHGLDKPKLGSCCRVLALGFPFGSGPPEGWTELTMGVGPWREETWGELIEKCLESMCQGEEAELQLPGHSGPPVRLTLASFTQGRDSWE | – | – | no binding
